The target in the series is Nucleocapsid (N) protein (SARS-CoV-2 original strain, UniProt P0DTC9 1-419). Briefly: flow cytometry (bead-immobilized protein); 1x SB. The settings on record: protein: recombinant; tags: His6 (pET28a); chain copies: 2. For orientation: Flow cytometry measures light scatter and fluorescence of single cells or particles in a stream.

B1: N-Apt17 (ssDNA)
DNA: GCTGGATGTTCATGCTGGCAAAAGGTGTCACTCCATTCCTTAGGGGCACCGGAAGCATCTCTTTACTTTGACACATCCAGC
With B1, the binding result was “binds”.

Source of the values: publication PMC10986557, “Inhibition of SARS-CoV-2 replication by a ssDNA aptamer targeting the nucleocapsid protein”.
